Assay results reported in PMC11770335.

Tests used:
[1] = target: E. coli Hfq V22A (E. coli) (UniProt P0A6X3); assay: crystal structure; co-crystal of Hfq V22A with A17 RNA; 15% PEGSH, 0.15 M ammonium acetate, 0.1 M trisodium citrate pH 5; 2.1 Å
[2] = target: E. coli Hfq V22A (E. coli) (UniProt P0A6X3); assay: crystal structure; co-crystal of Hfq V22A with pA4 RNA; 22.5% PEGSB, 0.2 M LiSO4, 0.05 M zinc acetate, 0.1 M Bis-Tris pH 7.5; roughly 3.0 Å

stoichiometry N [1]: 6
stoichiometry N [2]: 6
Substance: E. coli Hfq V22A (from UniProt P0A6X3 1-102) (natural protein)
